Measured values reported in the DeepSol protein solubility set.

test: soluble on expression in E. coli; label from the status in PepcDB or PDB records

Question: For “MGSDKIHHHHHHMHFYTARQPILNRRQRVVAYELLFRDSYKNCFPVDVPDKVATAKLLVNSFLSMDIEDMTDGKPALINFPTSLLKEHLVHILPYKNLVIEVLETVEPNDDNFAILKQLFDSGYHLALDDFIYSPAWDRFLPLFKLIKIDIVATPLDTIAHILPKLKQKKTRLLAEKVETQADFLHAKALGFDYFQGYFFYKPEIVKGNEVELSQPFLMSIYTEVMKPSFSYRKLEAYFTQDMDLSYKLLRFVNSSYFSHVKDIISLKQAMIFLGENQLRKFVCLIVMAQLNPDKPQILIQNTMLRARLCEVIAKVMKLNKLADAAFLTGLFSTLDAILDKPMEKVLHSLPLAPEINNALLHQQGELAECLALAIAYMQGNWEFVSEFVSRNHINAGELTRRCNQVYLWLSEYQRSSSSKA”, which “soluble on expression in E. coli” value is on record?
Answer: not soluble

Question: For “SLDLNDTYSGKREPFSGDHSADGFEVTSRSEMSSGSEISPVSEMPSSSEPSSGADYDYSEEYDNEPQIPGYIVDDSVRVEQVVKPPQNKTESENTSDKPKRKKKGGKNGKNRRNRKKKNPCNAEFQNFCIHGECKYIEHLEAVTCKCQQEYFGERCGEKSMKTHSMIDSSEG”, which “soluble on expression in E. coli” value is on record?
Answer: not soluble

Question: For “MKKHHHHHHLVPRGSIPHLILELLKCEPDEPQVQAKIMAYLQQEQANRSKHEKLSTFGLMCKMADQTLFSIVEWARSSIFFRELKVDDQMKLLQNCWSELLILDHIYRQVVHGKEGSIFLVTGQQVDYSIIASQAGATLNNLMSHAQELVAKLRSLQFDQREFVCLKFLVLFSLDVKNLENFQLVEGVQEQVNAALLDYTMCNYPQQTEKFGQLLLRLPEIRAISMQAEEYLYYKHLNGDVPYNNLLIEMLHAKRA”, which “soluble on expression in E. coli” value is on record?
Answer: soluble

Question: Which “soluble on expression in E. coli” value does the source give for “MTDFQKQFFARLHIEEKDTVSFEDLSNIMYAMAQTVPFENLNILEKNFKEISKENLKEKILVNNRGGLCYELNPTMYYFLKDSGFDVHLVSGTVYNAANSIWAVDSGHIATVLTHHNELYLIEVGFGSYLPLAPVPFLGEVIHSATGDYRIRKEMTEKGNYILEMRKNNEFLDQSAADDWTLGYAFYIEEVDEEKANTAQKIIVEHEGSPFNKVPLIVKLTEDGHASLTKDSLTVAKNGKKTKETVTDMQYTNLLHSKFGITL” here?
Answer: not soluble

Question: For “MSFSDHFSAVAASYAKARPRYPQRWFRYLARIVPDRQRVWDCATGNGQAAIALAEYFSEVIGSDASAAQVRQARSHPRVQYLVFPAEATPLAPASLDLITVAQAAHWFDLPQFYIEAQRLLRPGGVIALWGYGLGSLNPAIDHVFNHFYRDWLDPYWPPERQWVEQAYEGLSFPFEPLPTPTFSMQCDWTLFDLLAYLRTWSGVQQFQRQRGFDPVWAIAPELQRVWGDPQRYRRITWPLFAKVGRWQPDRVRLEHHHHHH”, which “soluble on expression in E. coli” value is on record?
Answer: not soluble

Question: Which “soluble on expression in E. coli” value does the source give for “MDVQDIIGIALNLATAGSLAAKVLPGCGGKKKGKSVEGESTSSSKGNGAKTPEGKEGSEARTPSAAGSAAPTAPAEGAAPAAGAPAAVAPKPPMAATHDPNYQTLAGLDNNVFGKKDGAAPAAGGGGPAAPADQNAKAATHDPNYQTLAGLNNNVFDKKDGVGAPAAAPVAAGGDKKPIQPNDKNKKAATMDPNYQTLAAVGGDVFGADKKAGGGGGDKKPIQPNNKGQKAATMDPNYQTLAAVGGDVFGADKKKK” here?
Answer: soluble

Question: Which “soluble on expression in E. coli” value does the source give for “MNNSGADEIGKLFVGGLDWSTTQETLRSYFSQYGEVVDCVIMKDKTTNQSRGFGFVKFKDPNCVGTVLASRPHTLDGRNIDPKPCTPRGMQPERTRPKEGWQKGPRSDNSKSNKIFVGGIPHNCGETELREYFKKFGVVTEVVMIYDAEKQRPRGFGFITFEDEQSVDQAVNMHFHDIMGKKVEVKRAEPRDSKSQAPGQPGASQWGSRVVPNAANGWAGQPPPTWQQGYGPQGMWVPAGQAIGGYGPPPAGRGAPPPPPPFTSYIVSTPPGGFPPPQGFPQGYGAPPQFSFGYGPPPPPPDQFAPPGVPPPPATPGAAPLAFPPPPSQAAPDMSKPPTAQPDFPYGQYAGYGQDLSGFGQGFSDPSQQPPSYGGPSVPGSGGPPAGGSGFGRGQNHNVQGFHPYRR” here?
Answer: soluble

Question: For “MLQIEKIVSNKGNDLSLRWNLLKKIDHFQCLTSLTRLNLNDNQIEKLENLETLVNLVFLDVSYNRITKIEGLSELINLEELHLVHNKIITIEGLETNTAMKYLEFGDNRIQKMENLSHLVNLERLFLGANQIRKIEGLDGMAQLKELSLPGNALQIIEGLDTLSGLKSISLAQNGIRKIDGLSGLTNLKSLDLNDNIIEKLENVEQFKGISSLMIRKNKLNCWQDVRQLKKLENLTVLTMEMNPLYSSDYTYRNRVKEILPDVKLLDGFPIFWVQGDPYQPIPEEFYEMGDVYVTSPTFVGHDTGSILAIDCHPSGKKFITCGQKARTSNGLVVVWNAEPVLDKKKASNENVPKLLFQVESQSQSNSCRWSPDGKRFAFGSDDSSVSVWEYVGLINSMGSITGGAQNVERYKECCVLRGHSMEVLTVEWSPNGKYLASGSIDYRIIIYNARKLPDRITVLNDIQLPVKGLSWDPIGKYLASLEGDKKLRFWATDSWQCVKSVTEPFESNIEETMLTRLDWSPDGKYLMTPAAVRSGKPLIKLIQRQTWKSDQFLAGHHKGTTCVRAMPRLIEANLKNGKRMQLTCAAVGSRDKSISIWVFPGTLKPLFVINNIFNHTVMDFAWCGRNLLACSQDGTVKVIHLSESVIGEMISNEAMSDLCYQIYSIRPPRYELTDKEEDESQDSFNLSDLSSSANNASFVTCPEDVLIKRKKLVAAQQSSDIQLTKSMEDNSKENESKNSEKTMMEERNKQIDVRKDGKRRIQPVFCGTTTADPMTSLSSEGKKTVAPPPAKRKALAPAVPAKKGEVDLEDSSDSDDDDEEEEEDMEISDIESVRNKKRKVPATTSQPMLALDLKKPALRPMEPKSLKTQEGTVLMEAPEQQPKLSQHVVDRKGMFVEIDNRWKHGGVETTQIKLIKKKQQTAENEDDMMDGERRVNHECLWMAVLGSPVIIVAANKHNVVLGCGDKCLRVYRTFCGTHIVSLRLDSLPVLIGVTEHAAYALTENGRLSTWNLKLGKAVVTRQPLFDCVEASTDNSLISADVSETGVPLIVFSNGSIFTFNVSLSCWIQAITTNVLGRLTSPISDAQLSCSNGTTNSAGPLVRLLKRMRKQATAPGVAPQVVKAVKESQLEQLLHCAEQLGNPQDYQTMLMLYVETLCEGGSEKKLKNILNDLSRSGAPMQVCGLRRSALYDDVTRMIKLKQPAIAARIVAGVAASTTTKSLF”, which “soluble on expression in E. coli” value is on record?
Answer: not soluble

Question: With “MSLFRFMKYKLFIDFEFNILDDNKNKPKEYNGAELISIGGILVDNEFNTIDNYYSLVKPKYNKILSNKCKNLTKLNQLDINNAPNLLYVMDDFYKWFCKFDDVTIYNWGDFDITGLLTSFRVYKYTGKCLELFNMMIDIQPFISQHITYNNRILSKQISLLNMKKIFSVEGDIKHNSLSDAVDLMNVCKCFFFNSPKNIDILEELYNKLPALKTEGHHHHHH” as the sequence, how does the “soluble on expression in E. coli” value read?
Answer: soluble

Question: Which “soluble on expression in E. coli” value does the source give for “MADVFEFELEGHESQASPQRHAYHYDNCTEIMEDDHMYSNVADGQISAPPPSSSYMEDPMMESIQLCASAINPPNVRVGPEDFQLLKVLGKGGYGKVFQVRKTTGSDNGQIFAMKVLQKATIVRNQKDTAHTKAERNILEAVKSPFICDLLYAFQTGGKLYLILEYLSGGELFMHLEREGMFMENVAKFYLSEIVVSLEHLHQQGIIYRDLKPENILLDAYGHVKLTDFGLCKEEIEGDQKTHTFCGTIEYMAPEILMRCGHGKAVDWWSLGALMFDMLTGGPPFTAENRRKTIDKILKGRLTLPAYLSNEARDLIKKLLKRHVDTRLGAGLSDAEEIKSHAFFKTTDWNLVYARQLEAPFKPNIENDEDTSLFDARFTKMTPVDSPCETNFSLNGDNPFVGFTYVAPSVLEMMNKGGHGGISVAHLASSMSRAGAAKSPRKPGDPETASILHGGHSNLFGHGPNSEAPQAFGYGIGSQMTTTTAGGAGIQQPYQSFSGGYPEDDAMDTSTPRASESRETTTGNGSTTTTRPSNVGSSASTPIPLPKRVIKLPHTHTSTQNAQYSFMLLLLNVSLFFHFF” here?
Answer: not soluble

Question: Which “soluble on expression in E. coli” value does the source give for “MCMVMREYNKERLRKAIELWYREEGVRIIKDRVEHYLKFYPVKPRSIKVKEQKRRWGSCTYYNDLLFNWRCIMAPLKVVDYIVVHEMTHMVHKDHSKNYWNFVSKIIPNYKEQKMWLKENGIIMDIMAGDPLEHHHHHH” here?
Answer: soluble

Question: With “MGSDKIHHHHHHMSAPLDIDQLQTFVAIADTGSFTKAADRVFKTQSAVSMQMRRLEERIGKPLFMKDGRGNRLTVEGDRLLNFARRMIRLNNEAIASFDDNRLEGTLRIGTPDDYADRYMPEIIVRFAKTHPNVELYIICEPSVDLAEKMAKGDLDIALVTHNPRARASDVVRTEPLCWVSSINHPLPENAPIPLAVGRRDCQWRQAACAALDATGKEYQILFTSWSSTVVAAAVLAGMAVSVLPESALRPGMKVLTLADGFPSLAPVQIGIMKRPGLSPSLSNAITNHITACLDNITPITVNDDLEGDLKGYPRYPRLRQSHMLPGW” as the sequence, how does the “soluble on expression in E. coli” value read?
Answer: not soluble

Question: With “MEQLQVGQVTLTWLNGGVTHLDGGAMFGVVPKPLWSKKYPPNDQNQIELRTDPILVEAGGKRLLIESGIGNGKLTDKQKRNFGVTEESSLDESLAALGLTRGDIDIVIMTHLHFDHACGLTVWEDGRLVPAFPRAAIITSDVEWEEMRAPNIRSRNTYWKENWEPIAEQVIPFTKETEVVSGIRLIHTGGHSAGHAIVLIESDGEMAIHLGDLLGTHAHQNVLWVMAYDDYPMDSIFAKQRWLPYGIERNAWFTFYHDAYYRAVKWREDGTIAEQVKRNRPTLLEHHHHHH” as the sequence, how does the “soluble on expression in E. coli” value read?
Answer: soluble

Question: With “QGWEKALYTLVTLYVTTRVIDAIHTRHMKLTAMIVTKKADEIKEAIYGKMVRGITTVPAKGAFTNEQKEMMIIVITRYELYDLEKIVKEVDPKAFTNIVQTTGIFGFFRKD” as the sequence, how does the “soluble on expression in E. coli” value read?
Answer: not soluble

Question: Which “soluble on expression in E. coli” value does the source give for “NVKHAFVDVQLAALPKMAYAAVDFVDYRFDNKHWKSLNEICPEVGLKPYADFAVLEVPLYLNNKLDYQVWENFIKPAIATYKALGDSTNLFASTSSSDLQNDTYFALGYPLLESNIDAIHFNQTGATLTSVPVKDRIKVKNQSFWTLN” here?
Answer: not soluble

Question: For “MWVDGMAKVVEVGRICVKTRGREAGRKCVIVDIIDENFVLVTGPKSLTGVRRRRVNIDHIEILDKKVDIQKGASDEEVLKALEEAGLADFMREPVRIARITPFTLLEHHHHHH”, which “soluble on expression in E. coli” value is on record?
Answer: not soluble

Question: Which “soluble on expression in E. coli” value does the source give for “MKILTQSLPNSSAAYLQGYLRENTDSSVTYPTVIIVPGGSYTHIPERQAEDLALAWVARGYQAFFLRYSFISEKTPLLPNPVIELAQSVAAIHAHATTWHVDLRRLAVAGFSVGGHITALFNDWWSEADFNQQAHTTPEQLKVQAVILGYPVISPDLGFPTDAATLATWSTTPKKIAADQHVTAANAPTFIWVTANDPLVPVQNALAYAQASLTHGVDTELHVFHNGPHGLALANSVTAWKPGTDLPHVAHWLDLATEWLQDLKLEHHHHHH” here?
Answer: soluble

Question: For “MGSDKIHHHHHHMEFWESSFIEKQTMWGFEPTESAILAKDFFLEKNVKDILVPGIGYGRNAKVFIENSINVTGIEISKTAIDLARENGLEDVSIYHGSVNEMPFDNKLYDGIFSHALLHLLNDQEREGFIENCYNQLKPGAYMVFTTVSKKAPMYGKGKQLDKDYYEIMEGVKMFFYDSESIKKDFNQYGLVQVSEIDEPNKNMANKPSINFLTIKCKKEL”, which “soluble on expression in E. coli” value is on record?
Answer: not soluble

Question: Which “soluble on expression in E. coli” value does the source give for “MKLYYSPGACSLSPHIALREAGLNFELVQVDLASKKTASGQDYLEVNPAGYVPCLQLDDGRTLTEGPAIVQYVADQVPGKQLAPANGSFERYHLQQWLNFISSELHKSFSPLFNPASSDEWKNAVRQSLNTRLGQVARQLEHAPYLLGDQLSVADIYLFVVLGWSAYVNIDLSPWPSLQAFQGRVGGREAVQSALRAEGLIKE” here?
Answer: soluble

Question: With “GISYSVEADPDTTAKAMLRERQMSFKHSKAIAREIKGKTAGEAVDYLEAVIEGDQPVPFKQHNSGVGHKSKVDGWDAGRYPEKASKAFLDLLENAVGNADHQGFDGEAMTIKHVAAHKVGEQQGRKPRAMGRASAWNSPQVDVELILEEPEVED” as the sequence, how does the “soluble on expression in E. coli” value read?
Answer: soluble
